Laboratory results from publication PMC7972811 (Cell Reports, 2021).
Like-named read-outs stand apart in the source and are kept apart here.

Key:
[1] = target: T1, SARS-CoV-2 spike S2P (ectodomain of the SARS-CoV-2 S trimer) (SARS-CoV-2, ancestral (P0DTC2 sequence), stabilised); test: cryo-EM structure
[2] = target: T1, SARS-CoV-2 spike S2P (ectodomain of the …); test: cell-based or functional assay
[3] = target: T1, SARS-CoV-2 spike S2P (ectodomain of the …); test: SPR
[4] = target: T1, SARS-CoV-2 spike S2P (ectodomain of the …); test: cryo-EM structure; remark: listed apart in the source
[5] = target: T1, SARS-CoV-2 spike S2P (ectodomain of the …); test: cryo-EM structure; remark: listed apart in the source

B1: H4 Fab (Fab, V domains shown)
VH: not shown
VL: DIQMTQSPLSLPVTPGEPASISCRSSQSLLDSDDGNTYLDWYLQKPGQSPQLLIYTLSYRASGVPDRFSGSGSGTDFTLKISRVEAEDVGVYYCMQRIEFPLTFGGGTKVEIK
stoichiometry N [1]: 1 Fab per spike trimer

B2: 2-4 IgG with the somatic hypermutation A60T (heavy chain) reverted to germline (antibody, V domains shown)
VH: not shown
VL: QSALTQPPSASGSPGQSVTISCTGTSSDVGGYNYVSWYQQHPGKAPKLMIYEVSKRPSGVPDRFSGSKSGNTASLTVSGLQAEDEADYYCSSYAGSNNLVFGGGTKLTVL
pseudovirus neutralization, fold reduction against 2-4 IgG [2]: ~9 fold | fold reduction of binding affinity against 2-4 IgG [3]: ~6 fold

B3: 2-43 IgG with the paratope somatic hypermutation S76T (heavy chain) reverted to germline (antibody, V domains shown)
VH: not shown
VL: QSALTQPASVSGSPGQSITISCTGTSSDVGGYNYVSWYQQHPGKAPKLMIYDVSKRPSGVSNRFSGSKSGNTASLTISGLQAEDEGDYYCSSYTSSSTWVFGGGTKLTVL
pseudovirus neutralization potency, fold reduction against 2-43 IgG [2]: ~5 fold | fold reduction of IgG-apparent binding affinity against 2-43 IgG [3]: ~6 fold

B4: 2-15 IgG with the paratope somatic hypermutation N53I (heavy chain) reverted to germline (antibody, V domains shown)
VH: QVQLVQSGAEVKKPGASVRVSCKASGYTFTGYYMHWVRQAPGQGLEWMGWINPNSDGTNYAQKFQGWVTMTRDTSISTVYMELSRLRSDDTAVYYCARGGSRCSGGNCYGWAYDAFDIWGQGTMITVSS
VL: QSALTQPASVSGSPGQSITISCTGTSSDVGGYNFVSWYQQHPGKAPKLMIYDVSKRPSGVSNRFSGSKSGNTASLTISGLQAEDEADCYCSSYTSSSTFVFGTGTKVTVL
pseudovirus neutralization potency, fold reduction against 2-15 IgG [2]: 217 fold | fold reduction of binding affinity against 2-15 IgG [3]: 56 fold

B5: 2-15 Fab (Fab, V domains shown)
VH: QVQLVQSGAEVKKPGASVRVSCKASGYTFTGYYMHWVRQAPGQGLEWMGWINPISDGTNYAQKFQGWVTMTRDTSISTVYMELSRLRSDDTAVYYCARGGSRCSGGNCYGWAYDAFDIWGQGTMITVSS
VL: QSALTQPASVSGSPGQSITISCTGTSSDVGGYNFVSWYQQHPGKAPKLMIYDVSKRPSGVSNRFSGSKSGNTASLTISGLQAEDEADCYCSSYTSSSTFVFGTGTKVTVL
neutralization potency of the Fab, fold less than its IgG form [2]: ~95 fold | stoichiometry N [4]: 1 Fab per spike trimer

B6: 2-43 Fab (Fab, V domains shown)
VH: not shown
VL: QSALTQPASVSGSPGQSITISCTGTSSDVGGYNYVSWYQQHPGKAPKLMIYDVSKRPSGVSNRFSGSKSGNTASLTISGLQAEDEGDYYCSSYTSSSTWVFGGGTKLTVL
neutralization potency of the Fab, fold less than its IgG form [2]: ~140 fold | stoichiometry N [5]: 3 Fab per spike trimer
